Measurements reported in IntAct's records for PubMed 17891154.

The substances below were run against vps29_human VPS29 (UniProt Q9UBQ0).

effect of a mutation on the interaction	Substance
disrupting interaction strength	Vacuolar protein sorting-associated protein 35 (Homo sapiens) (from UniProt Q96QK1) F534D;F541D
disrupting interaction strength	Vacuolar protein sorting-associated protein 35 (Homo sapiens) (from UniProt Q96QK1) H769A;N772A;H776A
disrupting interaction strength	Vacuolar protein sorting-associated protein 35 (Homo sapiens) (from UniProt Q96QK1) L579D;R582D;Q586A;L589D
disrupting interaction strength	Vacuolar protein sorting-associated protein 35 (Homo sapiens) (from UniProt Q96QK1) N725A;Y729A
disrupting interaction strength	Vacuolar protein sorting-associated protein 35 (Homo sapiens) (from UniProt Q96QK1) T629D;L630A;G633D;R637D
disrupting interaction strength	Vacuolar protein sorting-associated protein 35 (Homo sapiens) (from UniProt Q96QK1) T672D;H675D
